From patent US20110223107A1
Substitutions are numbered along the chain they refer to.

T1: Fc-fused truncated mutant of KAAG1 spanning amino acids 1-35 (human)
T1 sequence: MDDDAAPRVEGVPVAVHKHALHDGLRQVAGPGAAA

B1: Fab of well E10 (Omniclonal AL0003Z1 plate) (Fab, V domains shown)
VH: EVQLQQSGPELVKPGASVKISCKASGDTFTDYYMNWVKQSHGKSLEWIGDINPNYGGITYNQKFKGKATLTVDTSSSTAYMELRGLTSEDSAVYYCQAYYRNSDYWGQGTTLTVSS
VL: DIVMTQAAPSVPVTPGESVSISCRSSKSLLHSNGNTYLYWFLQRPGQSPQLLIYRMSNLASGVPDRFSGSGSGTAFTLRISRVEAEDVGVYYCMQHLEYPYTFGGGTKLEIK
B2: A9 (Fab, V domains shown)
VH: QVQVQQPGAELVRPGASVTLSCKASGYIFTDYEVHWVRQRPVHGLEWIGVIDPETGDTAYNQKFKGKATLTADKSSSTAYMELSSLTAEDSAVYYCIGYADYWGQGTTLTVSS
VL: DIVMTQSPSSLAMSLGQKVTMSCKSSQSLLNSNNQLNYLAWYQQKPGQSPKLLVYFASTRKSGVPDRFIGSGSGTDFTLTITSVQAEDLADYFCQQHFNTPLTFGAGTKLELK
B3: 3D3 mouse anti-KAAG1 Fab (Fab, V domains shown)
VH: EVQLQQSVAELVRPGASVTLSCKASGYIFTDYEIHWVKQTPVHGLEWIGVIDPETGNTAFNQKFKGKATLTADISSSTAYMELSSLTSEDSAVYYCMGYSDYWGQGTTLTVSS
VL: DIVMTQSPSSLAVSIGQKVTMNCKSSQSLLNSNFQKNFLAWYQQKPGQSPKLLIYFASTRESSIPDRFIGSGSGTDFTLTISSVQAEDLADYFCQQHYSTPLTFGAGTKLELK
B4: G12 (Fab, V domains shown)
VH: B3 VH with L20V, V42A
VL: DIVMTQSPKFMSTSVGDRVSITCKASQDVGTAVAWYQQKPGQSPELLIYWTSTRHTGVPDRFSGSGSGTDFTLTISSVQAEDLADYFCQQHYSIPLTFGAGTKLELR
B5: Fab of well C2 (Omniclonal AL0003Z1 plate) (Fab, V domains shown)
VH: DVQLQESGPDLVKPSQSLSLTCTVTGFSITSGYGWHWIRQFPGNKLEWMGYISFNGDSNYNPSLKSRISITRDTSKNQFFLQLNSVTSEDTATYYCASSYDGLFAYWGQGPLVTVSA
VL: DIQMTQSPSSMYASLGERVTLTCKASQDIHNYLNWFQQKPGKSPKTLIHRANRLVAGVPSRFSGSGSGQDYSLTISSLEYEDLGIYYCLQYDAFPLTFGAGTKLELK
B6: Fab of well D1 (Omniclonal AL0003Z1 plate) (Fab, V domains shown)
VH: B5 VH with D1E, N44D, S58Y, N84S, S88T, P111T
VL: B5 VL with Q3K, L21I, N31T, K45E, H49Y, A56D, L83M, A93E
B7: 3C4 mouse anti-KAAG1 Fab (Fab, V domains shown)
VH: B5 VH with D1E, S53N, F54Y, N55D, D57H, S58N, N59D, R72Q, S88T, P111T
VL: DIVMSQSPSSMYASLGERVTITCKASQDIHNFLNWFQQKPGKSPKTLIFRANRLVDGVPSRFSGSGSGQDYSLTISSLEFEDLGIYSCLQYDEIPLTFGAGTKLELR

These binders were tested against T1, Fc-fused truncated mutant of KAAG1 spanning amino acids 1-35 (human) (assay: ELISA).

OD450	Binder
0.33	B1

The binders below were run against Fc-0447 1-60 (human) (UniProt Q9UBP8) (assay: ELISA).

OD450	Binder
2.29	B2
1.33	B3
1.52	B4
0.48	B5
0.27	B6
0.57	B7
